In assay [1] the target is T1, 4Ig-domain of Neogenin (Gallus gallus, UniProt Q90610).
T1 construct: made in house
T1 sequence (Q90610 1-383): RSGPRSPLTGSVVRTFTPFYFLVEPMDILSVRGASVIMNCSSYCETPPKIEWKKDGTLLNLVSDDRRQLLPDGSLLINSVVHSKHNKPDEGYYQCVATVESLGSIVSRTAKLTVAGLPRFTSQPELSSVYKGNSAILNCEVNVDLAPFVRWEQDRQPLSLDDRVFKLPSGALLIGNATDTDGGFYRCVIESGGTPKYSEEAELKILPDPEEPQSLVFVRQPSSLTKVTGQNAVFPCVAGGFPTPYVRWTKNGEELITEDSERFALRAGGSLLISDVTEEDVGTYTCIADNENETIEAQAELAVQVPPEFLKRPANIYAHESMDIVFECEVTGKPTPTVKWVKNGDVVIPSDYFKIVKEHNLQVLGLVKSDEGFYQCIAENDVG
Nature of the assay: ELISA / AP binding assay of RGMa peptides to Neogenin domains. The note with it: AP-tagged fragments 1.0 μg/mL on coated His-tagged 4Ig. From the text: Specifically, the 4Ig-domain and 6FNIII-domain of Neogenin were each fused to alkaline phosphatase (AP). The 4Ig-domain and 6FNIII-domain of Neogenin were found in the extracellular portion of Neogenin. Accession No. AAC59662 (SEQ ID NO:1) was the amino acid sequence of Neogenin. The 4Ig-domain was amino acids 1 to 383 of Accession No. AAC59662 (SEQ ID NO:1). The 6FNIII-domain was amino acids 429 to 1036 of Accession No. AAC59662 (SEQ ID NO:1).
The binding of these fusions to various RGMa peptides were analyzed in an ELISA assay (FIG. 2A).
To determine if distinct N-terminal regions of RGMa bound the 4Ig- and 6FNIII-domains of Neogenin, peptides were generated that spanned the N-terminal region of RGMa. The amino acid sequence of RGMa was Accession No. NP_989868.1 (SEQ ID NO:6). These peptides were a peptide spanning amino acids 28-73 of RGMa (also referred to herein as “N-Raft”) and a peptide spanning amino acids 77-113 of RGMa (also referred to herein as “N-inh”). […] In a complementary experiment, in which the N-Raft and N-inh peptides of RGMa were fused with AP instead of the 4Ig- and 6FNIII-domains of Neogenin, N-Raft bound to the 4Ig-domain and not the 6FNIII-domain while N-inh bound to the 6FNIII-domain and not the 4Ig-domain (FIG. 9). Additionally, N-inh and N-Raft coated beads pulled down 6FNIII-domain and 4Ig-domain, respectively, which was consistent with the ELISA results described above (FIG. 2B).
The assay was conducted in a 96-well microtiter plate (Corning Incorporated). The wells were coated with 100 μl (10 μg/mL) of Poly-L-Lysine at 4° C. overnight. Wells were then washed three times with 100 μl of PB ST (+0.02% Tween).
50 μl (2.5 μg/mL) of His-tagged: Full-length Neogenin; the 4Ig-domain of Neogenin; and 6FNIII-domain of Neogenin were coated onto each well for 1 hour at 37° C. Following three washes of 100 μl PBST, each well was then blocked with 300 μl of 3% BSA in PBST for 1 hour at 37° C.
50 μl (1.0 μg/mL) AP-tagged: N-RGMa (28-73); N-RGMa (28-54); N-RGMa (40-62); N-RGMa (54-73); N-RGMa (54-62) in 1% BSA+PBST was then added to each well and incubated at 37° C. for 1 hour. Each well was washed thoroughly three times with 100 μl PBST followed by subsequent equilibration of each well with Alkaline Phosphatase (AP) developing buffer (100 mM NaHCO3, 1 mM MgCl2). The reaction was developed using AP developing buffer supplemented with, p-nitrophenyl phosphate (pNPP) (Sigma-Aldrich) and allowed to develop until color development. The reaction was stopped with the addition of 50 μl (0.1M) NaOH. The absorbance of each reaction was measured using a microplate autoreader (BIO-TEK Instruments Inc.) at 405 nanometers (nm) wavelength.

Assay [2] concerns retinal ganglion cells (RGCs). Nature of the assay: Retinal organotypic cultures (whole mounts), propidium iodide cell death. The following applies: perturbing lipid rafts. Format: cell-based. How it is done:
(A) HEK293 cells that stably express RGMa (FIG. 11) were transfected with empty plasmid (Ctrl) or Neogenin (Neo). Neogenin induced cell death (arrows) when compared to control. (B) Quantification of cell death in Neogenin-transfected cells that were incubated in BSA (Neo+Ctrl), 4Ig (1 μg/ml), N-Raft (1 μg/ml), Noggin (100 nM), or MβCD (10 mM). […] Data were average±SEM (n=3 independent experiments), *p<0.0001. (C) Representative images and (D) Quantification of cell death in chick E5 tecta electroporated with GFP- and a Neogenin-expression plasmid and then injected with N-RGMa50-99 (Ctrl; 1 μg/ml), 4Ig (1 μg/ml), or N-Raft (1 μg/ml) and subjected to TUNEL assay. […] Data were an average±SEM from 3 different tecta/conditions (*p<0.001). Bar, 100 μm. (E) Representative images and (F) Quantification of retinal whole mounts incubated for 4 days with control peptide (1 μg/ml), 4Ig (1 μg/ml), N-Raft (1 μg/ml), or MβCD (10 mM) and dead cells were stained with Propidium Iodide (PI). Images from 9 whole mounts per condition from 3 independent experiments were taken at the same intensities and the fluorescence measured using ImageJ. […] Bar, 500 μm. (G) Fluorescence micrographs of flat-mounted retinas depicting Fluorogold-labeled retinal ganglion cells (RGCs) in injured retinas at 14 days following axotomy. Control retinas (Ctrl) had few surviving RGCs. 4Ig, N-raft or MβCD increased cell survival. Bar, 200 μm. (H) Representations of the retinal areas selected in our analyses. […] Data were average±SEM (n=6 eyes), *p<0.01.
For this study, retinal organotypic cultures were used, in which axotomy of retinal ganglion cells (RGCs) deprived the cells of tropic factors and induced apoptosis. Cell death was detected using propidium iodide (PI) and all images were taken at the same intensity with the RGC-layer in focus. Cell death was gauged by measuring the relative PI intensity of whole mounts.

For assay [3], the system named is temporal retinal explants (axonal outgrowth). As to the kind of experiment: Retinal explants outgrowth assay. Format: cell-based, chick. As to the method:
Poly-L-Lysine (SIGMA; 10 μg/ml) coated glass coverslips were treated with Laminin (Invitrogen; 10 μg/ml) and RGMa proteins (5 μg/ml) and incubated for 3 hours at room temperature. Temporal retinal explants were cultured on protein-coated surfaces for 18 hours. To disrupt the lipid rafts, explants were pretreated with 10 mM methyl-β-cyclodextrin (MβCD) for 12 minutes or 2 U/ml cholesterol oxidase (CO) for 1 hour at 37° C. Explants were then fixed with 4% paraformaldehyde (PFA) and stained with Alexa488-phalloidin. Fiber length was quantified using Image Pro 5.0. For immunolocalization, explants were treated with Cholera Toxin B-FITC (C1655; Sigma; 10 mg/mL) and patched, fixed and stained with Neogenin antibody. Retinal ganglion cells (RGCs) were electroporated with RGMa-His and cultured for 18 hours. The cells were fixed and stained with Neogenin and His-tag antibodies.
Retinal explants outgrowth assay. Poly-L-Lysine (PLL; SIGMA; 10 μg/ml) coated glass coverslips were treated with Laminin (10 μg/ml; Invitrogen) and RGMa proteins (5 μg) and incubated for 3 hrs at room temperature. PLL treated coverslips were coated with myelin overnight (6 μg/cm2), followed by coating with Laminin. Temporal retinal explants were cultured on either myelin or protein-coated surfaces in DMEM F-12 media (2% chick serum, 10% FBS) for 18 h. To disrupt rafts, explants were pre-treated with 10 mM MβCD for 12 min or 2 U/ml CO for 1 h at 37° C., washed, and cultured on protein coated coverslips. Explants were then fixed with 4% PFA and stained with Alexa488-fluor-phalloidin (1:50; Molecular Probes). Fiber length was quantified using Image Pro 5.0.
Statistical analysis of retinal outgrowth assays was performed using Student's two-tail t-test using Excel (Microsoft). Results were expressed as the mean±SEM (n=at least 3 independent experiments; 2 duplicates per independent experiment, >10 explants per duplicate).

Assay [4] deals with Neogenin association with lipid rafts. Nature of the assay: Lipid raft fractionation of injected chick brain/tecta. Format: in vivo. The following applies: injected into chick brain/optic tectum one day before fractionation. As to the method:
Injected chick E8 tecta (4Ig, 2 mg/mL; N-raft, 1 mg/mL; methyl-β-cyclodextrin (10 mM)) or transfected cells (Neogenin and RGMa) were collected 24 hours later, lysed and placed at the bottom of a sucrose density gradient (0.9-0.8-0.75-0.7-0.6-0.5-0.4-0.2 M) and centrifuged at 38,000 rpm for 16 hours in SW 60 rotor (Beckman Instruments Inc.).
Proteins (4Ig, 2 mg/ml; N-Raft, 1 mg/mL; RGMaΔ, 5 mg/ml; methyl-β-cyclodextrin (10 mM)) were injected in chick E8 optic tectum and tecta were collected 24 hrs later. HEK cells were transfected with Neogenin and different RGMa constructs and collected 48 hrs later. For treatment with RGMaΔ, Neogenin transfected cells were treated with RGMaΔ (2 mg/ml) and BMP-2 (100 nM) and further incubated for 1 hr at 37° C. Tecta (3 tecta for each set of experiment) and/or cells were solubilized in chilled buffer (25 mM Tris-HCl, pH 7.4, 150 mM NaCl, 5 mM EDTA and protease inhibitor cocktail) and passed through G25 and G30 needles, respectively, and centrifuged at 800 g for 10 min at 4° C. Cold Triton X-100 was added to the post nuclear supernatant to a final concentration of 1% and incubated on ice for 1 hour. 2× volume of 2M sucrose was added and sample placed at the bottom of a sucrose density gradient (0.9-0.8-0.75-0.7-0.6-0.5-0.4-0.2 M) and centrifuged at 38,000 rpm for 16 hours in SW 60 rotor (Beckman Instruments Inc.). 400 μl fractions were collected from top (top numbered 1 and next eight fractions numbered consequently) and stored at −80° C.
As such, it was examined if overexpressing recombinant 4Ig and N-Raft competed with the endogenous 4Ig and N-Raft domains to displace Neogenin from the lipid raft fractions to the non-lipid raft fractions. Specifically, N-Raft, 4Ig-domain, or a control peptide, which was amino acid residues 50-99 of RGMa (also referred to herein as “N-RGMa^50-99”), was injected into the optic tectum at E8. The tecta were collected a day later for fractionation-analyses.

No end group written: not given here.

Take “N-RGMa (40-62aa): amino acids 40-62 of RGMa (SEQ ID NO:4), AP-tagged (WAATSGSHHLGAEETPEFCTALR; also: AP-tagged)”: the “binding to the 4Ig-domain of Neogenin” value in assay [1] is “bound specifically”. As to “N-RGMa (54-73aa): amino acids 54 to 73 of RGMa (SEQ ID NO:3), AP-tagged (TPEFCTALRAYAHCTRRTAR; cysteine pairing not given here; also: AP-tagged)”, in assay [1], the “binding to the 4Ig-domain of Neogenin” value is listed as “bound specifically”. Turning to cholesterol oxidase [CO], the “enhancement of cell survival vs. control” value in assay [2] is listed as “about 50%”. Moreover, the “axonal outgrowth on RGMa proteins after lipid raft disruption” value in assay [3] (10 mM MβCD or 2 U/ml of CO) was “restored to control values”.

B1: N-RGMc (SEQ ID NO:9): N-RGMc from mouse (protein)
chain: MGQSPSPRSPHGSPPTLSTLTLLLLLCGQAHSQCKILRCNAEYVSSTLSLRGGGSPDTPRGGGRGGLASGGLCRALRSYALCTRRTARTCRGDLAFHSAVHGIEDLMIQHNCSRQGPTAPPPARGPALPGAGPAPLTPDPCDYEARFSRLHGRAPGFLHCASFGD
modifications: Mouse N-RGMc
notes: N-RGMc from mouse
As for B1, the “binding to the 4Ig-domain of Neogenin” value in assay [1] is listed as “demonstrated binding”.

B2: Noggin: BMP-chelator, Accession No. AAA83259 (SEQ ID NO:5) (protein, listed as Homo sapiens)
chain: MERCPSLGVTLYALVVVLGLRATPAGGQHYLHIRPAPSDNLPLVDLIEHPDPIFDPKEKDLNETLLRSLLGGHYDPGFMATSPPEDRPGGGGGAAGGAEDLAELDQLLRQRPSGAMPSEIKGLEFSEGLAQGKKQRLSKKLRRKLQMWLWSQTFCPVLYAWNDLGSRFWPRYVKVGSCFSKRSCSVPEGMVCKPSKSVHLTVLRWRCQRRGGQRCGWIPIQYPIISECKCSC
modifications: Noggin - Accession No. AAA83259
For the molecule B2, the “Neogenin localization in membrane fractions” value in assay [4] was “not present in the lipid rafts”. Also, in assay [3] (in presence of Noggin), the “outgrowth in retinal explants (E8) exposed to N-RGMa, C-RGMa or RGMaΔ” value is “restored outgrowth”. Besides, the “axonal outgrowth, agent alone” value in assay [3] (no RGMa protein) was “unaffected”.

B3: N-RGMa (SEQ ID NO:10): N-RGMa from mouse (protein)
chain: MQPPRERLVVTGRAGWMGMGRGAGRSALGLWPTLAFLLCSFPAAISPCKILKCNSEFWSATSSGSHAPASDDVPEFCAALRTYALCTRRTARTCRGDLAYHSAVHGIEDLMSQHNCSKDGPTSQPRVRTLPPAGDSQERSDSPEICHYEKSFHKHSAAPNYT
modifications: Mouse N-RGMa
notes: N-RGMa from mouse
For B3, the “binding to the 4Ig-domain of Neogenin” value in assay [1] is “demonstrated binding”.

B4: C-RGMa: C-terminal RGMa isoform of the CNS (protein)
chain: PHLRTFTDTFQTCKVQGAWPLIDNNYLNVQVTNTPVLPGSSATATSKLTIIFKSFQECVEQKVYQAEMDELPAAFADGSKNGGDKHGANSLKITEKVSGQHIEIQAKYIGTTIVVRQVGRYLTFAVRMPEEVVNAVEDRDSQGLYLCLRGCPLNQQIDFQTFRLAQAAEGRARRKGPSLPAPPEAFTYESATAKCREKLPVEDLYFQSCVFDLLTTGDVNFMLAAYYAFEDVKMLHSNKDKLHLYERTRALAPGN
For B4, the “effect on axonal outgrowth when provided as growth substrate (in trans)” value in assay [3] (protein as substrate) was “blocked axon growth”.

(Values after US11497796B2, “Agents directed against a cis RGMa/neogenin interaction or lipid rafts and use of the same in methods of treatment” (UNIVERSITY HEALTH NETWORK, priority 2013, dated 2022).)
